Test results taken from patent publication US20050282739A1.
Square brackets hold non-standard residues; d marks the D form. Ends that are not written are not given here. Nle = CCCC[C@H](N)C(=O)O

B1: metallopeptide 4-7 (peptide)
peptide: YV[Nle]GHCFRWDRF-NH2
modifications: also: oxorhenium(V) N3S1 chelate: C6 SG + backbone N of G4, H5, C6, bridge at 6 via Re(V)=O, other end not in the chain
B2: metallopeptide 4-9 (peptide)
peptide: YV[Nle]CGHFRWDRF-NH2
modifications: also: oxorhenium(V) N3S1 chelate: C4 SG + backbone N of V2, X3, C4, bridge at 4 via Re(V)=O, other end not in the chain
B3: metallopeptide 4-6 (peptide)
peptide: YV[Nle]GHFCRWDRF-NH2
modifications: also: oxorhenium(V) N3S1 chelate: C7 SG + backbone N of H5, F6, C7, bridge at 7 via Re(V)=O, other end not in the chain
B4: metallopeptide 4-8 (peptide)
peptide: YV[Nle]GCHFRWDRF-NH2
modifications: also: oxorhenium(V) N3S1 chelate: C5 SG + backbone N of X3, G4, C5, bridge at 5 via Re(V)=O, other end not in the chain
B5: metallopeptide 4-10 (peptide)
peptide: YVC[Nle]GHFRWDRF-NH2
modifications: bridge (positions not given here); not fully specified (bridges); printed as Tyr-Val-Cys-Nle-Gly-His-Phe-Arg-Trp-Asp-Arg-Phe-NH2.; also: oxorhenium(V) N3S1 complex
B6: metallopeptide 10-3 (peptide)
peptide: [dF]QWA[dV]CHLL-NH2
modifications: bridge (positions not given here) via ReOCl3(PPh3)2; also: oxorhenium(V) N3S1 tetradentate complex at Cys 6
B7: metallopeptide 12-1 (peptide)
peptide: [dF]QWVCGHLL-NH2
modifications: bridge (positions not given here) via ReOCl3(PPh3)2; also: oxorhenium(V) N3S1 tetradentate complex at Cys 5
B8: metallopeptide 12-6 (peptide)
peptide: [dF]QWCVHLL-NH2
modifications: bridge (positions not given here) via ReOCl3(PPh3)2; also: oxorhenium(V) N3S1 tetradentate complex at Cys 4
B9: metallopeptide 12-2 (peptide)
peptide: [dF]QWACVHLL-NH2
modifications: bridge (positions not given here) via ReOCl3(PPh3)2; also: oxorhenium(V) N3S1 tetradentate complex at Cys 5
B10: metallopeptide 11-1 (peptide)
peptide: [dF]QWAVCHL-NH2
modifications: bridge (positions not given here) via ReOCl3(PPh3)2; also: oxorhenium(V) N3S1 tetradentate complex at Cys 6
B11: metallopeptide 11-3 (peptide)
peptide: [dF]QWAVC-NH2
modifications: bridge (positions not given here) via ReOCl3(PPh3)2; also: oxorhenium(V) N3S1 tetradentate complex at Cys 6
B12: metallopeptide 10-4 (peptide)
peptide: [dF]QW[dA]VCHLL-NH2
modifications: bridge (positions not given here) via ReOCl3(PPh3)2; also: oxorhenium(V) N3S1 tetradentate complex at Cys 6
B13: metallopeptide 12-4 (peptide)
peptide: [dF]QWVCHLL-NH2
modifications: bridge (positions not given here) via ReOCl3(PPh3)2; also: oxorhenium(V) N3S1 tetradentate complex at Cys 5
B14: metallopeptide 10-5 (peptide)
peptide: [dF]Q[dW]AVCHLL-NH2
modifications: bridge (positions not given here) via ReOCl3(PPh3)2; also: oxorhenium(V) N3S1 tetradentate complex at Cys 6
B15: metallopeptide 11-2 (peptide)
peptide: [dF]QWAVCH-NH2
modifications: bridge (positions not given here) via ReOCl3(PPh3)2; also: oxorhenium(V) N3S1 tetradentate complex at Cys 6
B16: metallopeptide 12-3 (peptide)
peptide: [dF]QWVCVHLL-NH2
modifications: bridge (positions not given here) via ReOCl3(PPh3)2; also: oxorhenium(V) N3S1 tetradentate complex at Cys 5

Target: melanocortin-1 receptor (MC1-R) of B-16 mouse melanoma cells (mouse) (UniProt Q01727)
Experiment: 125I-NDP-α-MSH competition, B-16 membranes

Chain of melanocortin-1 receptor (MC1-R) of B-16 mouse melanoma cells (mouse) (Q01727 whole entry): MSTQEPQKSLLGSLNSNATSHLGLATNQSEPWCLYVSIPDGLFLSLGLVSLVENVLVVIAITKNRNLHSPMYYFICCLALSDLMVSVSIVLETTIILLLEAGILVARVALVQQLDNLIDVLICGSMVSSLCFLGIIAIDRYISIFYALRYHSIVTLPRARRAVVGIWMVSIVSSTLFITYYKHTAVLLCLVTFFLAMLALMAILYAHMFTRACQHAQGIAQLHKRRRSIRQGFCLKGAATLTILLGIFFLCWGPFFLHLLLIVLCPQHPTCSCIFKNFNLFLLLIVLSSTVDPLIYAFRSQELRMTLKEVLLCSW

Point of comparison: B3, % Inhibition at 1 µM -8%. Against it:
- B1 — higher, 4%
- B2 — higher, 1%

Target: human melanocortin-5 receptor (hMC5-R) (human) (UniProt P33032)
Experiment: 125I-NDP-α-MSH competition, hMC5-R membranes

Chain of human melanocortin-5 receptor (hMC5-R) (human) (P33032 whole entry): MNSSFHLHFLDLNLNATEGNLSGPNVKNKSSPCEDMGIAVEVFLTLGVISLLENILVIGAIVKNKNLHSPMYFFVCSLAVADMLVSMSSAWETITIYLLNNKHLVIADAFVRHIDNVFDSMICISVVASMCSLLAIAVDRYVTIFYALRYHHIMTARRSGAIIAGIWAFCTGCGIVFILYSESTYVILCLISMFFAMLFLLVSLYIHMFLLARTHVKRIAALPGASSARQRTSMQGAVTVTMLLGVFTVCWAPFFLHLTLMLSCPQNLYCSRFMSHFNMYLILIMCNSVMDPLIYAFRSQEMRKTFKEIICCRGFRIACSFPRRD

Work on Ac-SYS[Nle]EHFRWGCKPV-NH2 (also: oxorhenium(V) N3S1 chelate at Cys11) [metallopeptide 1-4] yielded a % Inhibition at 1 µM of 6%.

Target: human melanocortin-3 receptor (hMC3-R) (human) (UniProt P41968)
Experiment: 125I-NDP-α-MSH competition, hMC3-R membranes

Chain of human melanocortin-3 receptor (hMC3-R) (human) (P41968 whole entry): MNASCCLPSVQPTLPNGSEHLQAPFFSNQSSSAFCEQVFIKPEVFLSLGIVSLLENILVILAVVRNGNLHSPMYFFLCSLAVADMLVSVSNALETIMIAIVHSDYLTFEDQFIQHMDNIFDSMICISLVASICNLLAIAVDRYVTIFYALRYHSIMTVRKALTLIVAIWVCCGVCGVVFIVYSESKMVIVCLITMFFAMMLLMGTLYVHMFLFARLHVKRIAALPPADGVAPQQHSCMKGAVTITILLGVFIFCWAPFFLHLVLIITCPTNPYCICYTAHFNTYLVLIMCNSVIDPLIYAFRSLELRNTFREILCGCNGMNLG

Point of comparison: Ac-SYS[dC][Nle]EHFRWGKPV-NH2 (also: oxorhenium(V) N3S1 chelate at D-Cys4) [metallopeptide 2-11], % Inhibition at 1 µM 5%. Against it:
- Ac-SYS[Nle]EHFRWGKGCV-NH2 (also: oxorhenium(V) N3S1 chelate at Cys13) [metallopeptide 1-2] — higher, 6%

Target: human melanocortin-4 receptor (hMC4-R) (human) (UniProt P32245)
Experiment: 125I-NDP-α-MSH competition, hMC4-R membranes

Chain of human melanocortin-4 receptor (hMC4-R) (human) (P32245 whole entry): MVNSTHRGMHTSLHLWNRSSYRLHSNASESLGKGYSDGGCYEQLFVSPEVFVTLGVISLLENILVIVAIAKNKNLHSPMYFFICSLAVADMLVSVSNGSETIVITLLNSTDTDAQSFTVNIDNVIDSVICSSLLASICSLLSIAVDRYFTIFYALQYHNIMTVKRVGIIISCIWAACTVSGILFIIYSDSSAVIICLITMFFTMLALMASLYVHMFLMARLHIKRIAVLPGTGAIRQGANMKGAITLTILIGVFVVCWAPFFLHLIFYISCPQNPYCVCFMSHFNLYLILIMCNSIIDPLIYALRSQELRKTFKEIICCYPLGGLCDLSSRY

Point of comparison: Ac-SYS[Nle]ECHFRWGKPV-NH2 (also: oxorhenium(V) N3S1 chelate at Cys6) [metallopeptide 1-9], % Inhibition at 1 µM 3%. Against it:
- B1 — higher, 4%
- Ac-SYS[Nle]CEHFRWGKPV-NH2 (also: oxorhenium(V) N3S1 chelate at Cys5) [metallopeptide 1-10] — higher, 7%
- B4 — lower, -1%
- B5 — lower, 2%
- B2 — higher, 4%

Target: bombesin receptor of rat brain membranes (rat)
Experiment: 125I-Bombesin competition, rat brain membranes

Point of comparison: B7, % Inhibition 2%. Against it:
- B6 — higher, 7%
- WAVCH-NH2 (also: bridge at 4 via oxorhenium(V) N3S1 chelate, other end not in the chain) [metallopeptide 11-11] — lower, -1%
- QWAVCHLL-NH2 (also: bridge at 5 via oxorhenium(V) N3S1 chelate, other end not in the chain) [metallopeptide 11-4] — higher, 25%
- B8 — higher, 10%
- AVCH-NH2 (also: bridge at 3 via oxorhenium(V) N3S1 chelate, other end not in the chain) [metallopeptide 11-12] — higher, 5%
- QWAVC-NH2 (also: bridge at 5 via oxorhenium(V) N3S1 chelate, other end not in the chain) [metallopeptide 11-13] — lower, -50%
- B9 — higher, 3%
- B10 — higher, 98%
- QWAVCHL-NH2 (also: bridge at 5 via oxorhenium(V) N3S1 chelate, other end not in the chain) [metallopeptide 11-7] — higher, 5%
- B11 — lower, -81%
- WAVCHLL-NH2 (also: bridge at 4 via oxorhenium(V) N3S1 chelate, other end not in the chain) [metallopeptide 11-5] — higher, 18%
- B12 — the same, 2%
- AVCHLL-NH2 (also: bridge at 3 via oxorhenium(V) N3S1 chelate, other end not in the chain) [metallopeptide 11-6] — higher, 6%
- B13 — higher, 5%
- B14 — higher, 6%
- B15 — higher, 25%
- AVCHL-NH2 (also: bridge at 3 via oxorhenium(V) N3S1 chelate, other end not in the chain) [metallopeptide 11-9] — higher, 7%
- WAVC-NH2 (also: bridge at 4 via oxorhenium(V) N3S1 chelate, other end not in the chain) [metallopeptide 11-14] — higher, 8%
- B16 — higher, 14%
- WAVCHL-NH2 (also: bridge at 4 via oxorhenium(V) N3S1 chelate, other end not in the chain) [metallopeptide 11-8] — higher, 13%
